Reference: article PMC8524982

The sequences below were run on T1, His6-OsnR (Corynebacterium glutamicum), ORF:93dbb295 (assay: EMSA). Settings: 20 mM HEPES pH 7.4, 2.5 mM MgCl2, 75 mM KCl, 0.5 mM EDTA, 2 mM DTT, 10% glycerol, 1 ug poly d(I-C), 100 ng/ul BSA; 30 ng DNA in 20 ul, 30 C, 30 min; 5% PAGE ….
T1 sequence: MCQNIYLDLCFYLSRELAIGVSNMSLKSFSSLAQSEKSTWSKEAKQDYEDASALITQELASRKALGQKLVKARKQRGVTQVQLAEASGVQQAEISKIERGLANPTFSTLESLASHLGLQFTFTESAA

With “ACCGCTTCTAAGCACCCAACTCGCCAAAACTAGGACAACAGGTCGCCGCAGACAGTCGACCGCTTAAAACGCCACACAGCACCCCACTTCACATAACCCCAAGTCGGAAACAAAAGCCCCCAACCTGCACAGATGTCAACTATTTCAACCAGCCAGAAACTATCTCCAAAAGCTAATAAAACCCTTGCACTGACAAATAAGGCGACCTACCATGACTCTGTTTCCAACACATAAAAAGGATAAAAAATGTCACTTTCAGTCGTCGAGGCG (double strand) [cg0404 promoter]” as the sequence, how does the binding read?
Its binding is “no binding”.

How did the binding turn out when “CAAGCGTGGGGATTCCTGGCTCGATGCTCATGCTTCACTTCCTTATCTTTTGAAACCATGTGCAGCTGTTTTTCTCTTCATTTTTCTCTTCATACACTGACACAGTTCAACTCAATCAAATAGTCAACTATGCAAGGTAGTCGACTATGTGGCATAGTCGCCATAGTTGAGTTTTATTCATGGCTTTTAGCTAGGCGACTTTAGTTGAGGGCTTTTAGTTGAGGGCTTCCCAGCAGGGATGGTTAAGGAGAATTCAGTGAACCAACAGAGTAAAAAGTGGCTCGTACCGACACTGGT (double strand) [cg0026 promoter]” was run?
Its binding is “binds”.

With “GGCGAGGCCACGTTCAATCTTGCTTATTTCTGCCTGTTGGACTCCAGAAGCTTCAGCAAGTTGAACTTGGGTGACTCCTCGTTGTTTCCGAGCCTTGACTAGTTTTTGGCCAAGAGCTTTTCGTGAGGCGAGTTCTTGAGTGATTAGCGCGGAAGCGTCCTCGTAATCTTG (double strand) [osnR ORF (+110 to +286)]” as the sequence, how does the binding read?
The binding was “no binding”.

How did the binding turn out when “GGCTGCTCAGACATAAGATGTGCTCCTAATTTAGAAATCGGATGTGGGCTGGACTGGGAAGGCAACTAACTGGTGCTTTGTCGTCCACGTATCTCAACGCATATGACTATAAAAAGCTTCCCAAGTACCAGTTCAGTCTATAATTCGCGGTGTTATTGAGATGGTTTGAGGCTGGAAAGCTTCGATTGCAGCCAGTTGTTGAGTACTTCAGAGGCGTGATCTCTGGCGGGTTTCCTTGAGAGGAAAATATCGTGGCGAGCGTTGTCGATGAT (double strand) [mtr promoter]” was run?
Its binding is “no binding”.

For “TTTGGTGGTGGGCAATGCTGCGACCATCTTTATGAATCTCATTGGCTGCCGGGAAGGCCGCGACCCCTTGCTGCTCATCGCGGTTCTCACGTTCCCGCTGTATTGGCTGCTCATGAGCATTGCAGCGTTGAAAGGCACGTGGCAATTGATCACGCGACCATCCTATTGGGAGAAAACTGCCCACGGATTGGAGGCGTAAGCGGTGCCCATCGTCAAACCAATGCCGGCACTG (double strand) [cg0165 promoter]”, which binding is on record?
The binding was “binds”.
